# Data: patent US20250084142A1 (INTARCIA THERAPEUTICS, published 2025)
# Starred links: 1 amine or outer side, 2 acyl side, 3 side chain; linkers in the order of their positions; H or OH if unused. Positions of bridges follow the written chain, without caps; N, C: chain ends. Non-standard residues stand in square brackets, D forms with d. Groups on a side chain read outwards from the residue. No end group written: not given here. *: point of attachment. Phe(4-COOH) = N[C@@H](Cc1ccc(C(=O)O)cc1)C(=O)O; C20 diacid = O=C(O)CCCCCCCCCCCCCCCCCCC(=O)*; C19 diacid = O=C(O)CCCCCCCCCCCCCCCCCC(=O)*; C18 diacid = O=C(O)CCCCCCCCCCCCCCCCC(=O)*; γGlu = O=C(O)[C@H](CCC(=O)[*:2])N[*:1]
# T1: NPY2R
# T1 sequence (P49146 1-381, species assumed, looked up): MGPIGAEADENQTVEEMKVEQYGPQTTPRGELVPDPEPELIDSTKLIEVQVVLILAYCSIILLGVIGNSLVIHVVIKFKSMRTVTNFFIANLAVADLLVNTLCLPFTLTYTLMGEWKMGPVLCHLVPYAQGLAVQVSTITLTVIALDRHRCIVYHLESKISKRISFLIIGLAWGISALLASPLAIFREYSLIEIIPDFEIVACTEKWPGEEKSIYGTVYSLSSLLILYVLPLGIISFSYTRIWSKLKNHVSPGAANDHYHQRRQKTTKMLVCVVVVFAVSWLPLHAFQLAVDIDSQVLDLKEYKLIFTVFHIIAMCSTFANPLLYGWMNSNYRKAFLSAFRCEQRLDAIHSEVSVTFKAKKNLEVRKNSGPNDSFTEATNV
# T2: NPY5R
# T2 sequence (Q15761 1-445, species assumed, looked up): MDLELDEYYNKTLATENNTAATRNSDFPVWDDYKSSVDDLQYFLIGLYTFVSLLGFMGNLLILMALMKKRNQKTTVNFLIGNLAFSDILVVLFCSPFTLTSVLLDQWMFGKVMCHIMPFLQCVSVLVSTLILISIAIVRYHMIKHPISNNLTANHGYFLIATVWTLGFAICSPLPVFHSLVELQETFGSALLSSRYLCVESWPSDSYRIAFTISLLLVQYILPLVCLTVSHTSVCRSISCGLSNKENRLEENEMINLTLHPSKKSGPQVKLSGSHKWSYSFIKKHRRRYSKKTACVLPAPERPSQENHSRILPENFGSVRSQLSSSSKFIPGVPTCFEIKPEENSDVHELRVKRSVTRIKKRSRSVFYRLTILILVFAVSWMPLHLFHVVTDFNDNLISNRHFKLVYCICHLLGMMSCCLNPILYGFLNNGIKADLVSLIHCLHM
# B1: Compound A42 (peptide)
# peptide: PKPEAPGK([γGlu-γGlu-C20 diacid])DASPEEWDRYYKDLRHYLNWLTRQRF-NH2
# modifications: lactam 16-20
# B2: Compound A41 (peptide)
# peptide: PKPEAPGK([γGlu-γGlu-C20 diacid])DASPEEWERYYKDLRHYLNWLTRQRF-NH2
# modifications: lactam 16-20
# B3: Compound A44 (peptide)
# peptide: PKPEAPGK([γGlu-γGlu-C20 diacid])DASPEEWKRYYDDLRHYLNWLTRQRF-NH2
# modifications: lactam 16-20
# B4: Compound A37 (peptide)
# peptide: PKPEK([γGlu-γGlu-C20 diacid])PGKDASPKEWNRYYKDLRHYLNWLTRQRF-NH2
# modifications: N-terminus assumed
# SMILES: CC(C)C[C@H](NC(=O)[C@H](CC(=O)O)NC(=O)[C@H](CCCCN)NC(=O)[C@H](Cc1ccc(O)cc1)NC(=O)[C@H](Cc1ccc(O)cc1)NC(=O)[C@H](CCCNC(=N)N)NC(=O)[C@H](CC(N)=O)NC(=O)[C@H](Cc1c[nH]c2ccccc12)NC(=O)[C@H](CCC(=O)O)NC(=O)[C@H](CCCCN)NC(=O)[C@@H]1CCCN1C(=O)[C@H](CO)NC(=O)[C@H](C)NC(=O)[C@H](CC(=O)O)NC(=O)[C@H](CCCCN)NC(=O)CNC(=O)[C@@H]1CCCN1C(=O)[C@H](CCCCNC(=O)CC[C@H](NC(=O)CC[C@H](NC(=O)CCCCCCCCCCCCCCCCCCC(=O)O)C(=O)O)C(=O)O)NC(=O)[C@H](CCC(=O)O)NC(=O)[C@@H]1CCCN1C(=O)[C@H](CCCCN)NC(=O)[C@@H]1CCCN1)C(=O)N[C@@H](CCCNC(=N)N)C(=O)N[C@@H](Cc1c[nH]cn1)C(=O)N[C@@H](Cc1ccc(O)cc1)C(=O)N[C@@H](CC(C)C)C(=O)N[C@@H](CC(N)=O)C(=O)N[C@@H](Cc1c[nH]c2ccccc12)C(=O)N[C@@H](CC(C)C)C(=O)N[C@H](C(=O)N[C@@H](CCCNC(=N)N)C(=O)N[C@@H](CCC(N)=O)C(=O)N[C@@H](CCCNC(=N)N)C(=O)N[C@@H](Cc1ccccc1)C(N)=O)[C@@H](C)O
# B5: Compound A43 (peptide)
# peptide: PKPEAPGK([γGlu-γGlu-C20 diacid])DASPEEWKRYYEDLRHYLNWLTRQRF-NH2
# modifications: lactam 16-20
# B6: Compound A59 (peptide)
# peptide: PKPEAPGK([γGlu-γGlu-C20 diacid])DASPEEWNRYYADLRHYLNWLTRQR[Phe(4-COOH)]-NH2
# B7: Compound A40 (peptide)
# peptide: PKPEKPGK([γGlu-γGlu-C19 diacid])DASPKEWDRYYKDLRHYLNWLTRQRF-NH2
# modifications: lactam 16-20; N-terminus assumed
# SMILES: CC(C)C[C@H](NC(=O)[C@H](CC(=O)O)NC(=O)[C@@H]1CCCCNC(=O)C[C@H](NC(=O)[C@H](Cc2c[nH]c3ccccc23)NC(=O)[C@H](CCC(=O)O)NC(=O)[C@H](CCCCN)NC(=O)[C@@H]2CCCN2C(=O)[C@H](CO)NC(=O)[C@H](C)NC(=O)[C@H](CC(=O)O)NC(=O)[C@H](CCCCNC(=O)CC[C@H](NC(=O)CC[C@H](NC(=O)CCCCCCCCCCCCCCCCCC(=O)O)C(=O)O)C(=O)O)NC(=O)CNC(=O)[C@@H]2CCCN2C(=O)[C@H](CCCCN)NC(=O)[C@H](CCC(=O)O)NC(=O)[C@@H]2CCCN2C(=O)[C@H](CCCCN)NC(=O)[C@@H]2CCCN2)C(=O)N[C@@H](CCCNC(=N)N)C(=O)N[C@@H](Cc2ccc(O)cc2)C(=O)N[C@@H](Cc2ccc(O)cc2)C(=O)N1)C(=O)N[C@@H](CCCNC(=N)N)C(=O)N[C@@H](Cc1c[nH]cn1)C(=O)N[C@@H](Cc1ccc(O)cc1)C(=O)N[C@@H](CC(C)C)C(=O)N[C@@H](CC(N)=O)C(=O)N[C@@H](Cc1c[nH]c2ccccc12)C(=O)N[C@@H](CC(C)C)C(=O)N[C@H](C(=O)N[C@@H](CCCNC(=N)N)C(=O)N[C@@H](CCC(N)=O)C(=O)N[C@@H](CCCNC(=N)N)C(=O)N[C@@H](Cc1ccccc1)C(N)=O)[C@@H](C)O
# B8: Compound A75 (peptide)
# peptide: PKPEKPGK([γGlu-γGlu-C20 diacid])DASPEEWSRYYKDLRHYLNWLTRQRF-NH2
# modifications: N-terminus assumed
# SMILES: CC(C)C[C@H](NC(=O)[C@H](CC(=O)O)NC(=O)[C@H](CCCCN)NC(=O)[C@H](Cc1ccc(O)cc1)NC(=O)[C@H](Cc1ccc(O)cc1)NC(=O)[C@H](CCCNC(=N)N)NC(=O)[C@H](CO)NC(=O)[C@H](Cc1c[nH]c2ccccc12)NC(=O)[C@H](CCC(=O)O)NC(=O)[C@H](CCC(=O)O)NC(=O)[C@@H]1CCCN1C(=O)[C@H](CO)NC(=O)[C@H](C)NC(=O)[C@H](CC(=O)O)NC(=O)[C@H](CCCCNC(=O)CC[C@H](NC(=O)CC[C@H](NC(=O)CCCCCCCCCCCCCCCCCCC(=O)O)C(=O)O)C(=O)O)NC(=O)CNC(=O)[C@@H]1CCCN1C(=O)[C@H](CCCCN)NC(=O)[C@H](CCC(=O)O)NC(=O)[C@@H]1CCCN1C(=O)[C@H](CCCCN)NC(=O)[C@@H]1CCCN1)C(=O)N[C@@H](CCCNC(=N)N)C(=O)N[C@@H](Cc1c[nH]cn1)C(=O)N[C@@H](Cc1ccc(O)cc1)C(=O)N[C@@H](CC(C)C)C(=O)N[C@@H](CC(N)=O)C(=O)N[C@@H](Cc1c[nH]c2ccccc12)C(=O)N[C@@H](CC(C)C)C(=O)N[C@H](C(=O)N[C@@H](CCCNC(=N)N)C(=O)N[C@@H](CCC(N)=O)C(=O)N[C@@H](CCCNC(=N)N)C(=O)N[C@@H](Cc1ccccc1)C(N)=O)[C@@H](C)O
# B9: Compound A38 (peptide)
# peptide: PKPEK([γGlu-γGlu-C18 diacid])PGEDASPKEWNRYYKDLRHYLNWLTRQRF-NH2
# modifications: N-terminus assumed
# SMILES: CC(C)C[C@H](NC(=O)[C@H](CC(=O)O)NC(=O)[C@H](CCCCN)NC(=O)[C@H](Cc1ccc(O)cc1)NC(=O)[C@H](Cc1ccc(O)cc1)NC(=O)[C@H](CCCNC(=N)N)NC(=O)[C@H](CC(N)=O)NC(=O)[C@H](Cc1c[nH]c2ccccc12)NC(=O)[C@H](CCC(=O)O)NC(=O)[C@H](CCCCN)NC(=O)[C@@H]1CCCN1C(=O)[C@H](CO)NC(=O)[C@H](C)NC(=O)[C@H](CC(=O)O)NC(=O)[C@H](CCC(=O)O)NC(=O)CNC(=O)[C@@H]1CCCN1C(=O)[C@H](CCCCNC(=O)CC[C@H](NC(=O)CC[C@H](NC(=O)CCCCCCCCCCCCCCCCC(=O)O)C(=O)O)C(=O)O)NC(=O)[C@H](CCC(=O)O)NC(=O)[C@@H]1CCCN1C(=O)[C@H](CCCCN)NC(=O)[C@@H]1CCCN1)C(=O)N[C@@H](CCCNC(=N)N)C(=O)N[C@@H](Cc1c[nH]cn1)C(=O)N[C@@H](Cc1ccc(O)cc1)C(=O)N[C@@H](CC(C)C)C(=O)N[C@@H](CC(N)=O)C(=O)N[C@@H](Cc1c[nH]c2ccccc12)C(=O)N[C@@H](CC(C)C)C(=O)N[C@H](C(=O)N[C@@H](CCCNC(=N)N)C(=O)N[C@@H](CCC(N)=O)C(=O)N[C@@H](CCCNC(=N)N)C(=O)N[C@@H](Cc1ccccc1)C(N)=O)[C@@H](C)O
# Target: T1, NPY2R
# Test: cell-based or functional assay
row,NPY2R pEC50,Binder
1,"10.3 -Log(EC50, M)",B1
2,"10.5 -Log(EC50, M)",B2
3,"9.7 -Log(EC50, M)",B3
4,"10.8 -Log(EC50, M)",B4
5,"10.5 -Log(EC50, M)",B5

# Target: T2, NPY5R
# Test: cell-based or functional assay
row,NPY5R pEC50,Binder
1,"6 -Log(EC50, M)",B6
2,"9.1 -Log(EC50, M)",B1
3,"9.3 -Log(EC50, M)",B2
4,"9.2 -Log(EC50, M)",B3
5,"9 -Log(EC50, M)",B7
6,"8.6 -Log(EC50, M)",B4
7,"8.5 -Log(EC50, M)",B5
8,"9.3 -Log(EC50, M)",B8
9,"8.4 -Log(EC50, M)",B9
